Measurements reported in patent US20100015126A1, “Methods of Binding of Cross-Beta Structures By Chaperones” (priority 2006, published 2010).

Experiments:
human BiP [1] = molecular target: T1, human BiP (Homo sapiens, UniProt P11021); experiment: ELISA: binding of BiP-FLAG-His to immobilized (misfolded) protein ligands; conditions: ligands coated at 5 μg/ml; 6BB peptides and oxLDL 50 μg/ml
T1 construct: The human BiP gene except the signal peptide encoding region was obtained from Geneart (Germany); linker […]; made in house; host or cells: HEK 293E cells, transient transfection, PABC674 vector; secreted into the medium
Description: Enzyme Linked Immunosorbent Assay for Testing of Chaperone Binding to Misfolded Proteins
(§1) Binding of chaperones to immobilized (misfolded) protein ligands was determined using an enzyme linked immuno sorbent assay (ELISA) approach. For this purpose 50 μl/well of potential ligands at indicated concentrations or coat buffer only for control and background measurement purposes, were coated overnight at 4° C. or coated for 1 h at room temperature, with motion, in 50 mM NaHCO3 pH 9.6 (coat buffer). In general, ligands were coated at 5 μg/ml, unless stated otherwise. For example, BiP binding peptides 6BB# and oxLDL were coated at 50 μg/ml. Native haemoglobin (Sigma-Aldrich, H7379), albumin, IgIV Gammagard and ovalbumin controls were prepared from lyophilized stocks. The controls were prepared by dissolving lyophilized proteins at 1 mg/ml in PBS upon resuspending by pipetting, followed by a 30 minutes period at the roller device, at room temperature. The protein solutions were centrifuged for 10 minutes at 16,000*g and diluted in coat buffer. After coating the plates were washed at least three times with 50 mM Tris-HCl pH 7.3, 150 mM NaCl, 0.1% v/v Tween20, and blocked with Blocking reagent (Roche Diagnostics, Almere, The Netherlands; 11112589001), for 1 h at room temperature, with motion. Plates were washed three times and incubated in triplicate with indicated chaperone dilution series, at 50 μl/well, for 1 h at room temperature, with constant motion. For HSP90, 5 mM DTT is incorporated in the binding buffer (PBS/0.1% Tween20) to avoid unwanted disulfide bond formation of the HSP90. Plates were washed three times and incubated with anti-FLAG antibody (mouse antibody, M2, peroxidase conjugate; Sigma, A-8592) for BiP-FLAG-His, anti-His-tag antibody (Mouse Monoclonal Antibody, Cat. No. 70796, Novagen [0.2 mg/ml]) for HSP60, a 1:1 mix of 500-fold diluted anti-HSP90beta antibodies (Stressgen, SPA-643 [mouse monoclonal IgM], SPA-646 [rabbit polyclonal]) for HSP90 and an anti-DnaK antibody (Stressgen, 023SPA-880D [mouse monoclonal antibody]) for DnaK. After four wash cycles, secondary antibodies were added to the wells when required, 50 μl/well, for 45′ at room temperature, with motion. RAMPO and SWARPO were used at 3000 times dilution. […] In a second experiment with more immobilized misfolded proteins and controls, the detection of bound HSP90 with the mix of two anti-HSP90 antibodies was achieved by mixing 1:1500 SWARPO with 1:3000 RAMPO. After 5 washes with wash buffer followed by two washes with PBS, binding of antibodies was assessed. Bound anti-FLAG-PO, peroxidase-conjugated rabbit anti-mouse immunoglobulins (RAMPO, P0260, DAKOCytomation, Glostrup, Denmark) or peroxidase-coupled swine anti-rabbit immunoglobulins (SWARPO, P0217, DAKOCytomation) was visualized with tetramethylbenzidine (TMB, #45.01.20,/#45.014.01, Biosource, Nivelles, Belgium). The reaction was stopped after 5 minutes with 1% H2SO4 in H2O. Plates were read at 450 nm. Triplicates were averaged and standard deviations calculated. Background signals obtained with buffer-coated wells were subtracted (binding of primary antibody to empty wells), as well as background signals obtained with ligand-coated wells in which the chaperones were omitted (binding of primary and secondary antibody to coated ligands). Subsequently, sub-optimal concentrations of chaperones for binding to misfolded protein ligands are determined, and these concentrations are used for inhibition studies. […] We have previously identified that a sub-fraction of IgIV molecules has affinity for misfolded proteins comprising crossbeta structure (pending patent application). Moreover, we identified that the sub-fraction of IgIV molecules directly binds to crossbeta structure and/or crossbeta structure induced conformation (not shown; pending patent application). […]

human BiP [2] = molecular target: T1, human BiP; experiment: Competition ELISA: BiP binding to misfolded proteins under influence of crossbeta binding compounds; conditions: for Influence of Congo red on interaction of BiP with misfolded protein / Influence of ThS on interaction of BiP with misfolded protein / Influence of ThT on interaction of BiP with misfolded protein: fixed sub-optimal BiP concentration; for Influence of Congo red on interaction of BiP with misfolded protein: concentration series of Congo red; for Influence of ThS on interaction of BiP with misfolded protein: concentration series of ThS; for Influence of ThT on interaction of BiP with misfolded protein: concentration series of ThT
Description: Binding of chaperones to immobilized (misfolded) protein ligands was determined using an enzyme linked immuno sorbent assay (ELISA) approach. For this purpose 50 μl/well of potential ligands at indicated concentrations or coat buffer only for control and background measurement purposes, were coated overnight at 4° C. or coated for 1 h at room temperature, with motion, in 50 mM NaHCO3 pH 9.6 (coat buffer). In general, ligands were coated at 5 μg/ml, unless stated otherwise. For example, BiP binding peptides 6BB# and oxLDL were coated at 50 μg/ml. Native haemoglobin (Sigma-Aldrich, H7379), albumin, IgIV Gammagard and ovalbumin controls were prepared from lyophilized stocks. The controls were prepared by dissolving lyophilized proteins at 1 mg/ml in PBS upon resuspending by pipetting, followed by a 30 minutes period at the roller device, at room temperature. The protein solutions were centrifuged for 10 minutes at 16,000*g and diluted in coat buffer. After coating the plates were washed at least three times with 50 mM Tris-HCl pH 7.3, 150 mM NaCl, 0.1% v/v Tween20, and blocked with Blocking reagent (Roche Diagnostics, Almere, The Netherlands; 11112589001), for 1 h at room temperature, with motion. Plates were washed three times and incubated in triplicate with indicated chaperone dilution series, at 50 μl/well, for 1 h at room temperature, with constant motion. For HSP90, 5 mM DTT is incorporated in the binding buffer (PBS/0.1% Tween20) to avoid unwanted disulfide bond formation of the HSP90. […] After four wash cycles, secondary antibodies were added to the wells when required, 50 μl/well, for 45′ at room temperature, with motion. RAMPO and SWARPO were used at 3000 times dilution. […] In a second experiment with more immobilized misfolded proteins and controls, the detection of bound HSP90 with the mix of two anti-HSP90 antibodies was achieved by mixing 1:1500 SWARPO with 1:3000 RAMPO. After 5 washes with wash buffer followed by two washes with PBS, binding of antibodies was assessed. Bound anti-FLAG-PO, peroxidase-conjugated rabbit anti-mouse immunoglobulins (RAMPO, P0260, DAKOCytomation, Glostrup, Denmark) or peroxidase-coupled swine anti-rabbit immunoglobulins (SWARPO, P0217, DAKOCytomation) was visualized with tetramethylbenzidine (TMB, #45.01.20,/#45.014.01, Biosource, Nivelles, Belgium). The reaction was stopped after 5 minutes with 1% H2SO4 in H2O. Plates were read at 450 nm. Triplicates were averaged and standard deviations calculated. Background signals obtained with buffer-coated wells were subtracted (binding of primary antibody to empty wells), as well as background signals obtained with ligand-coated wells in which the chaperones were omitted (binding of primary and secondary antibody to coated ligands). Subsequently, sub-optimal concentrations of chaperones for binding to misfolded protein ligands are determined, and these concentrations are used for inhibition studies.
In a subsequent study we analysed whether BiP interacts directly with the crossbeta structure, by performing ELISA binding studies with a fixed sub-optimal concentration of BiP and concentration series of crossbeta binding compounds. The results are depicted in FIGS. 12, 13 and Table 7. Binding of BiP without added crossbeta binding compounds was set to 100%.

[3] = molecular target: T2, Escherichia coli HSP70 family member DnaK (Escherichia coli, UniProt P0A6Y8); experiment: ELISA: binding of DnaK to immobilized (misfolded) protein ligands
T2 construct: purchased Stressgen (Ann Arbor, Mich., USA) SPP-630
Description: Recombinant Escherichia coli (E. coli) DnaK was purchased from Stressgen (Ann Arbor, Mich., USA; SPP-630). For the binding studies first lot B502468 (100 μg, lot A) and then lot 05240609 (200 μg, lot B) was used.
as §1

[4] = molecular target: T3, human mitochondrial HSP60 (Homo sapiens, UniProt P10809); experiment: ELISA: binding of HSP60 to immobilized (misfolded) protein ligands
T3 construct: Dr. W. van Eden, Utrecht University; host or cells: E. coli
Description: Recombinant human HSP60 with N-terminal His-tag was a kind gift of Dr. R. van der Zee and Prof. Dr. W. van Eden (Institute of Infectious Diseases and Immunology, Faculty of Veterinary Medicine, Utrecht University, Utrecht, The Netherlands), and was supplied in lyophilized form. The HSP60 was produced in E. coli and purified using Nickel-Sepharose. The HSP60 was lyophilized from 20-40 mM ammonium-bicarbonate solution, after purification, and stored at −20° C. The construct lacks the mitochondrial signal sequence. […] Before use, the lyophilized protein is dissolved at room temperature at 1 mg/ml in 20-40 mM NH4HCO3, resulting in a pH of 7.0. Aliquots are stored at −20° C. or −80° C. The mitochondrial HSP60 is a functional dimer of heptamers (MW(HSP60 monomer)=˜58 kDa), and is involved in multimer protein assembling and aids in transport of unfolded proteins across membranes. For the binding studies, at two occasions separate HSP60 solutions were prepared originating from the same batch of purified protein, lyophilized in separate Eppendorf cups.
Binding of chaperones to immobilized (misfolded) protein ligands was determined using an enzyme linked immuno sorbent assay (ELISA) approach. For this purpose 50 μl/well of potential ligands at indicated concentrations or coat buffer only for control and background measurement purposes, were coated overnight at 4° C. or coated for 1 h at room temperature, with motion, in 50 mM NaHCO3 pH 9.6 (coat buffer). In general, ligands were coated at 5 μg/ml, unless stated otherwise. For example, BiP binding peptides 6BB# and oxLDL were coated at 50 μg/ml. Native haemoglobin (Sigma-Aldrich, H7379), albumin, IgIV Gammagard and ovalbumin controls were prepared from lyophilized stocks. The controls were prepared by dissolving lyophilized proteins at 1 mg/ml in PBS upon resuspending by pipetting, followed by a 30 minutes period at the roller device, at room temperature. The protein solutions were centrifuged for 10 minutes at 16,000*g and diluted in coat buffer. After coating the plates were washed at least three times with 50 mM Tris-HCl pH 7.3, 150 mM NaCl, 0.1% v/v Tween20, and blocked with Blocking reagent (Roche Diagnostics, Almere, The Netherlands; 11112589001), for 1 h at room temperature, with motion. Plates were washed three times and incubated in triplicate with indicated chaperone dilution series, at 50 μl/well, for 1 h at room temperature, with constant motion. For HSP90, 5 mM DTT is incorporated in the binding buffer (PBS/0.1% Tween20) to avoid unwanted disulfide bond formation of the HSP90. Plates were washed three times and incubated with anti-FLAG antibody (mouse antibody, M2, peroxidase conjugate; Sigma, A-8592) for BiP-FLAG-His, anti-His-tag antibody (Mouse Monoclonal Antibody, Cat. No. 70796, Novagen [0.2 mg/ml]) for HSP60, a 1:1 mix of 500-fold diluted anti-HSP90beta antibodies (Stressgen, SPA-643 [mouse monoclonal IgM], SPA-646 [rabbit polyclonal]) for HSP90 and an anti-DnaK antibody (Stressgen, 023SPA-880D [mouse monoclonal antibody]) for DnaK. After four wash cycles, secondary antibodies were added to the wells when required, 50 μl/well, for 45′ at room temperature, with motion. RAMPO and SWARPO were used at 3000 times dilution. […] In a second experiment with more immobilized misfolded proteins and controls, the detection of bound HSP90 with the mix of two anti-HSP90 antibodies was achieved by mixing 1:1500 SWARPO with 1:3000 RAMPO. After 5 washes with wash buffer followed by two washes with PBS, binding of antibodies was assessed. Bound anti-FLAG-PO, peroxidase-conjugated rabbit anti-mouse immunoglobulins (RAMPO, P0260, DAKOCytomation, Glostrup, Denmark) or peroxidase-coupled swine anti-rabbit immunoglobulins (SWARPO, P0217, DAKOCytomation) was visualized with tetramethylbenzidine (TMB, #45.01.20,/#45.014.01, Biosource, Nivelles, Belgium). The reaction was stopped after 5 minutes with 1% H2SO4 in H2O. Plates were read at 450 nm. […]

T2 sequence (P0A6Y8 whole entry): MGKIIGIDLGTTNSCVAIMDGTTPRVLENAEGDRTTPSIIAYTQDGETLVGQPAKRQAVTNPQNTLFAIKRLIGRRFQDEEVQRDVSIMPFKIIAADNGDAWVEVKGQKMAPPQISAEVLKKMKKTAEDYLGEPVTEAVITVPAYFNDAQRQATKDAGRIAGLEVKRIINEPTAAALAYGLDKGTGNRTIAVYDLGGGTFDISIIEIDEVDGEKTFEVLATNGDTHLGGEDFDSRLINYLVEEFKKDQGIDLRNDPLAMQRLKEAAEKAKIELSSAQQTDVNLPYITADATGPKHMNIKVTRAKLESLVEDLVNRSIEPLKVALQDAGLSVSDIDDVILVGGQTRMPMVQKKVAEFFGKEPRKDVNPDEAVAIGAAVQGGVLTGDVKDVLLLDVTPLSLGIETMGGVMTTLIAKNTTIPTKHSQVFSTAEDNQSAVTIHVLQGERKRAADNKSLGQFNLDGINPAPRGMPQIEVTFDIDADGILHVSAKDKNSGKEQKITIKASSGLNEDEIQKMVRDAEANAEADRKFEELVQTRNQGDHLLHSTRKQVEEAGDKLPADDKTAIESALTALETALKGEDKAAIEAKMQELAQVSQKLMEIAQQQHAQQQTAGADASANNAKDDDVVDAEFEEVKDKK
T1 sequence (P11021 19-654): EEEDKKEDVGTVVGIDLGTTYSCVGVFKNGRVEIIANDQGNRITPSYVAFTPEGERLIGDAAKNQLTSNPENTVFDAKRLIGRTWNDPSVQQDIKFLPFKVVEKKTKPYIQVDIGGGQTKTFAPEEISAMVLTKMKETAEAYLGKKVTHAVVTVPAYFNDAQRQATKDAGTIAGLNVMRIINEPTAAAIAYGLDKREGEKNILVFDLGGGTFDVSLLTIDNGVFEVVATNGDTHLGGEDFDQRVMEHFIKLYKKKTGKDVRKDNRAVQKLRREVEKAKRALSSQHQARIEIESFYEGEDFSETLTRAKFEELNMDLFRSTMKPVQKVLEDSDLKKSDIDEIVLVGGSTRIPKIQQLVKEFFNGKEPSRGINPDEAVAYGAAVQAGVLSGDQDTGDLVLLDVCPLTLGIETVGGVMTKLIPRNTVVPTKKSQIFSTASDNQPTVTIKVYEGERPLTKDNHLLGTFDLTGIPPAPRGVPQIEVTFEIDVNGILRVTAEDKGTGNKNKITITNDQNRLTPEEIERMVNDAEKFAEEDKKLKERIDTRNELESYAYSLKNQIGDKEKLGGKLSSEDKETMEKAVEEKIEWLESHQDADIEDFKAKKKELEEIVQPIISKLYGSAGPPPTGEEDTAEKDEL
T3 sequence (P10809 27-573): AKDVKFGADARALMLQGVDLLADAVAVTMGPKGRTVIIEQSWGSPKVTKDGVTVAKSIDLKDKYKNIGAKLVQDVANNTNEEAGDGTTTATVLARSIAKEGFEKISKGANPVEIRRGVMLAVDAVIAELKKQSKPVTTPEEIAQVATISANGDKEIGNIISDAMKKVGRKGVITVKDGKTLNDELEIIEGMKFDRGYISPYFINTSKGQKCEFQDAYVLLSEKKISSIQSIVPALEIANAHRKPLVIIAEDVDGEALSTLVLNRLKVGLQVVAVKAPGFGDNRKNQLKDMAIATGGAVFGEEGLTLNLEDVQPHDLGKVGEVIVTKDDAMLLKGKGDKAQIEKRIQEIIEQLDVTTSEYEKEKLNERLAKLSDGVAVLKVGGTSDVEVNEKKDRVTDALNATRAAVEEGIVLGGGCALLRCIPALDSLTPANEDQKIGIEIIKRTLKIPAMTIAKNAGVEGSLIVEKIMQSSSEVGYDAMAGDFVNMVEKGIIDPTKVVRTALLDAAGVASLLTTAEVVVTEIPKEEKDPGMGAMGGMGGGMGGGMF

Row | Substance | Binding of concentration series of BiP to coated ligand (human BiP [1]) | Binding of concentration series of DnaK to coated ligand [3] | further results
1 | Aβ1-40: amyloid-β 1-40 peptide coated in Example 7 | has been established | – | –
2 | FWGLWPWE [6BB11] | has been established | did not bind | Influence of Congo red on interaction of BiP with misfolded protein (human BiP [2]): ↓ (a ↓ sign refers to inhibited abolished binding of BiP); Influence of ThS on interaction of BiP with misfolded protein (human BiP [2]): ↓ (a ↓ sign refers to inhibited abolished binding of BiP); Influence of ThT on interaction of BiP with misfolded protein (human BiP [2]): ↓ (a ↓ sign refers to inhibited abolished binding of BiP)
3 | KRLEVDIDIK [FP10, synthetic fibrin peptide without crossbeta structure (negative control)] | did not bind | – | –
4 | LFWPFEWI [6BB9] | has been established | – | Influence of Congo red on interaction of BiP with misfolded protein (human BiP [2]): ↓ (a ↓ sign refers to inhibited abolished binding of BiP); Influence of ThS on interaction of BiP with misfolded protein (human BiP [2]): ↓ (a ↓ sign refers to inhibited abolished binding of BiP); Influence of ThT on interaction of BiP with misfolded protein (human BiP [2]): ↓ (a ↓ sign refers to inhibited abolished binding of BiP)
5 | RRRAA [6BB13] | no BiP binding was observed | did not bind | –
6 | Thioflavin S [ThS] | – | – | Influence on interaction of BiP with misfolded proteins comprising crossbeta structure (summary in words) (human BiP [2]; BiP binding without compound set to 100%): can either potentiate BiP binding, or inhibit
7 | YVDRFIGW [6BB8] | no BiP binding was observed | did not bind | –
8 | fibrin: fibrin immobilized in wells from fibrinogen and factor IIa | has been established | has been established | Binding of concentration series of HSP60 to coated ligand [4]: has been established
9 | thrombin | did not bind | – | –
